Data from IntAct's records for PubMed 31704776.

B1: Meiotic recombination protein REC114 (Homo sapiens), Q7Z4M0 (parent)
chain: MAEAGKVPLSLGLTGGEAAEWPLQRYARCIPSNTRDPPGPCLEAGTAPCPTWKVFDSNEESGYLVLTIVISGHFFIFQGQTLLEGFSLIGSKDWLKIVRRVDCLLFGTTIKDKSRLFRVQFSGESKEQALEHCCSCVQKLAQYITVQVPDGNIQELQLIPGPPRATESQGKDSAKSVPRQPGSHQHSEQQQVCVTAGTGAPDGRTSLTQLAQTLLASEELPHVYEQSAWGAEELGPFLRLCLMDQNFPAFVEEVEKELKKLAGLRN
partner: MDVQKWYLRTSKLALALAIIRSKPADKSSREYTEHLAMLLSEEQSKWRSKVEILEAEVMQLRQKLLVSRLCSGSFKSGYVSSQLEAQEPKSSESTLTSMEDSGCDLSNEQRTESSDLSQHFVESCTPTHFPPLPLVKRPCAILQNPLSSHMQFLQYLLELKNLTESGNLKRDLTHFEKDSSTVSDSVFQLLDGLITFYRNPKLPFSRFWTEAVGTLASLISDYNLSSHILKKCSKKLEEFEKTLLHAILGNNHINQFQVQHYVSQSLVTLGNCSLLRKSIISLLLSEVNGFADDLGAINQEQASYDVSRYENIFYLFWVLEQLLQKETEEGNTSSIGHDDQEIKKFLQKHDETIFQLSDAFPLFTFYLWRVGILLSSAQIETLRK

Variants of: B1
Conditions: with mei4_human MEI4, A8MW99

effect of a mutation on the interaction	Variant
with no effect	MAEAGKVPLSLGLTGGEAAEWPLQRYARCIPSNTRDPPGPCLEAGTAPCPTWKVFDSNEESGYLVLTIVISGHFFIFQGQTLLEGFSLIGSKDWLKIVRRVDCLLFGTTIKDKSRLFRVQFSGESKEQALEHGCSCVQKLAQYITVQVPDGNIQELQLIPGPPRATESQGKDSAKSVPRQPGSHQHSEQQQVCVTAGTGAPDGRTSLTQLAQTLLASEELPHVYEQSAWGAEELGPFLRLCLMDQNFPAFVEEVEKELKKLAGLRN [C133G]
